Measurements: paper doi:10.1101/2020.01.24.918300 (bioRxiv, 2020)

Molecular target: the molecule itself
Test: single-molecule photobleaching step counting on DNA tightropes

B1: cJun bZIP region fused to mNeonGreen (domain or fragment)
chain: RIKAERKRMRNRIAASKCRKRKLERIARLEEKVKTLKAQNSELASTANMLREQVAQLKQKVMNH
stoichiometry N: 2
